# T1: O3-AA
# T1 chain: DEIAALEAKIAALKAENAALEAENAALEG
# T2: P9-AA
# T2 chain: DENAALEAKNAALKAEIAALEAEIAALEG
# T3: O2-AA
# T3 chain: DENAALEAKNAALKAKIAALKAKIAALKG
# T4: O14-AA
# T4 chain: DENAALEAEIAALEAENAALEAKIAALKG
# T5: O1-AA
# T5 chain: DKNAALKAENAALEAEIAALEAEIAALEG
# T6: O11-AA
# T6 chain: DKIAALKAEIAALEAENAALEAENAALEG
# T7: O4-AA
# T7 chain: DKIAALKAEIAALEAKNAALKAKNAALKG
# T8: P10-AA
# T8 chain: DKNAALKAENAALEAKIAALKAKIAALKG
# T9: O13-AA
# T9 chain: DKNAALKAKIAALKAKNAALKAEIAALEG
# T10: O8-AA
# T10 chain: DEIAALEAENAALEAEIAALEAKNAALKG
# T11: O7-AA
# T11 chain: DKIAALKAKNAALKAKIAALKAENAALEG
# T12: O5-AA
# T12 chain: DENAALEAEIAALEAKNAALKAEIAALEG
# T13: O6-AA
# T13 chain: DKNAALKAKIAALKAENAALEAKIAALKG
# T14: 4H850-bA
# T14 chain: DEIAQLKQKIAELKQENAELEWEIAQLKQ
# T15: 4H1985-bA
# T15 chain: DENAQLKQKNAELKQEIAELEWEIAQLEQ
# T16: 4H3277-bA
# T16 chain: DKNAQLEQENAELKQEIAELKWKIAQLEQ
# T17: 4H1373-bA
# T17 chain: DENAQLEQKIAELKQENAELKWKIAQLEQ
# T18: 4H1710-bA
# T18 chain: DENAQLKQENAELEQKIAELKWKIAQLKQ
# T19: 4H3817-bA
# T19 chain: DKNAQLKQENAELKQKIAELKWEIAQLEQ
# T20: 4H3298-bA
# T20 chain: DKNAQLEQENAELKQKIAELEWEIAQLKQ
# T21: 4H3497-bA
# T21 chain: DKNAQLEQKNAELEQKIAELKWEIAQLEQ
# T22: 4H1449-bA
# T22 chain: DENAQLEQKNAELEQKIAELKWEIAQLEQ
# T23: 4H3162-bA
# T23 chain: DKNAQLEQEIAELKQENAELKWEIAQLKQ
# T24: 4H3613-bA
# T24 chain: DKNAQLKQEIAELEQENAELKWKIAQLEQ
# T25: 4H1899-bA
# T25 chain: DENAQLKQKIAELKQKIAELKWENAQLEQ
# T26: 4H626-bA
# T26 chain: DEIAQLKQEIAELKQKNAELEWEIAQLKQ
# T27: 4H591-bA
# T27 chain: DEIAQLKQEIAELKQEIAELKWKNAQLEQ
# T28: 4H3175-bA
# T28 chain: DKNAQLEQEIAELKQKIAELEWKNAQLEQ
# T29: 4H338-bH
# T29 chain: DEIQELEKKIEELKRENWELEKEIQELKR
# T30: 4H1544-bA
# T30 chain: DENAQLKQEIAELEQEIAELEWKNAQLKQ
# T31: 4H3462-bA
# T31 chain: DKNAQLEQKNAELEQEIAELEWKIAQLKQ
# T32: 4H570-bA
# T32 chain: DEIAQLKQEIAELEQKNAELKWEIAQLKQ
# T33: 4H3628-bA
# T33 chain: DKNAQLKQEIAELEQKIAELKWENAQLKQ
# T34: 4H3858-bA
# T34 chain: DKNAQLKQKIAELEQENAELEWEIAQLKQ
# T35: 4H3638-bA
# T35 chain: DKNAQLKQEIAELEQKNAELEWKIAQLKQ
# T36: 4H1348-bA
# T36 chain: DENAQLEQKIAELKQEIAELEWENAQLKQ
# T37: 4H3974-bA
# T37 chain: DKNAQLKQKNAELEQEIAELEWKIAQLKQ
# T38: 4H3926-bA
# T38 chain: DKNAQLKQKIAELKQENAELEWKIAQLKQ
# T39: 4H906-bA
# T39 chain: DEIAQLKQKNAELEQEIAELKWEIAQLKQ
# T40: 4H918-bN
# T40 chain: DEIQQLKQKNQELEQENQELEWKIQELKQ
# T41: 4H908-bN
# T41 chain: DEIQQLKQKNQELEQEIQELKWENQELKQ
# T42: 4H855-bN
# T42 chain: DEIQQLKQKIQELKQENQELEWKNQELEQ
# T43: 4H883-bN
# T43 chain: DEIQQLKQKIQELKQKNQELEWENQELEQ
# T44: P12bH1
# T44 chain: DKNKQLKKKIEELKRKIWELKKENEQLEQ
# T45: 4H967-bN
# T45 chain: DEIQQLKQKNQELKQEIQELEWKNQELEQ
# T46: 4H968-bN
# T46 chain: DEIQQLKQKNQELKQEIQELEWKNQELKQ
# T47: P6bH1
# T47 chain: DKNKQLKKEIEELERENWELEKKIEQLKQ
# T48: 4H797-bN
# T48 chain: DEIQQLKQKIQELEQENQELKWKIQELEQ
# T49: 4H953-bN
# T49 chain: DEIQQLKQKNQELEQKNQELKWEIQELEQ
# T50: P1bH1
# T50 chain: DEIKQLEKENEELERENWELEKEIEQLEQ
# T51: P8bH1
# T51 chain: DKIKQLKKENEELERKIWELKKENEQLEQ
# T52: P9bH1
# T52 chain: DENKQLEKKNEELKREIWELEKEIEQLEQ
# T53: P4bH1
# T53 chain: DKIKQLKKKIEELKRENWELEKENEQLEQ
# T54: P2bH1
# T54 chain: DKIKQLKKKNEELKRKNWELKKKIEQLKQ
# T55: P5bH1
# T55 chain: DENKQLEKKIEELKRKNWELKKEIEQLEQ
# T56: P7bH1
# T56 chain: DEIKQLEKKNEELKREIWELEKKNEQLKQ
# T57: P3bH1
# T57 chain: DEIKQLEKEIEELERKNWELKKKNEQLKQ
# Columns and labels:
# O3-AA = target: T1, O3-AA; assay: two-hybrid library CCmax; conditions: mean of both orientations;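 note: natural log of median RNA to DNA barcode read ratio; higher means stronger binding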
# P9-AA = target: T2, P9-AA; assay: two-hybrid library CCmax; conditions: mean of both orientations;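 note: natural log of median RNA to DNA barcode read ratio; higher means stronger binding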
# O2-AA = target: T3, O2-AA; assay: two-hybrid library CCmax; conditions: mean of both orientations;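 note: natural log of median RNA to DNA barcode read ratio; higher means stronger binding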
# O14-AA = target: T4, O14-AA; assay: two-hybrid library CCmax; conditions: mean of both orientations;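 note: natural log of median RNA to DNA barcode read ratio; higher means stronger binding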
# O1-AA = target: T5, O1-AA; assay: two-hybrid library CCmax;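 note: natural log of median RNA to DNA barcode read ratio; higher means stronger binding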
# O11-AA = target: T6, O11-AA; assay: two-hybrid library CCmax;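 note: natural log of median RNA to DNA barcode read ratio; higher means stronger binding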
# O4-AA = target: T7, O4-AA; assay: two-hybrid library CCmax; conditions: mean of both orientations
# P10-AA = target: T8, P10-AA; assay: two-hybrid library CCmax; conditions: mean of both orientations
# O13-AA = target: T9, O13-AA; assay: two-hybrid library CCmax; conditions: mean of both orientations
# O8-AA = target: T10, O8-AA; assay: two-hybrid library CCmax; conditions: mean of both orientations
# O7-AA = target: T11, O7-AA; assay: two-hybrid library CCmax; conditions: mean of both orientations
# O5-AA = target: T12, O5-AA; assay: two-hybrid library CCmax
# O6-AA = target: T13, O6-AA; assay: two-hybrid library CCmax; conditions: mean of both orientations
# 4H850-bA = target: T14, 4H850-bA; assay: two-hybrid library CCNG1
# 4H1985-bA = target: T15, 4H1985-bA; assay: two-hybrid library CCNG1
# 4H3277-bA = target: T16, 4H3277-bA; assay: two-hybrid library CCNG1
# 4H1373-bA = target: T17, 4H1373-bA; assay: two-hybrid library CCNG1
# 4H1710-bA = target: T18, 4H1710-bA; assay: two-hybrid library CCNG1
# 4H3817-bA = target: T19, 4H3817-bA; assay: two-hybrid library CCNG1
# 4H3298-bA = target: T20, 4H3298-bA; assay: two-hybrid library CCNG1
# 4H3497-bA = target: T21, 4H3497-bA; assay: two-hybrid library CCNG1
# 4H1449-bA = target: T22, 4H1449-bA; assay: two-hybrid library CCNG1
# 4H3162-bA = target: T23, 4H3162-bA; assay: two-hybrid library CCNG1
# 4H3613-bA = target: T24, 4H3613-bA; assay: two-hybrid library CCNG1
# 4H1899-bA = target: T25, 4H1899-bA; assay: two-hybrid library CCNG1
# 4H626-bA = target: T26, 4H626-bA; assay: two-hybrid library CCNG1
# 4H591-bA = target: T27, 4H591-bA; assay: two-hybrid library CCNG1
# 4H3175-bA = target: T28, 4H3175-bA; assay: two-hybrid library CCNG1
# 4H338-bH = target: T29, 4H338-bH; assay: two-hybrid library CCNG1
# 4H1544-bA = target: T30, 4H1544-bA; assay: two-hybrid library CCNG1
# 4H3462-bA = target: T31, 4H3462-bA; assay: two-hybrid library CCNG1
# 4H570-bA = target: T32, 4H570-bA; assay: two-hybrid library CCNG1
# 4H3628-bA = target: T33, 4H3628-bA; assay: two-hybrid library CCNG1
# 4H3858-bA = target: T34, 4H3858-bA; assay: two-hybrid library CCNG1
# 4H3638-bA = target: T35, 4H3638-bA; assay: two-hybrid library CCNG1
# 4H1348-bA = target: T36, 4H1348-bA; assay: two-hybrid library CCNG1
# 4H3974-bA = target: T37, 4H3974-bA; assay: two-hybrid library CCNG1
# 4H3926-bA = target: T38, 4H3926-bA; assay: two-hybrid library CCNG1
# 4H906-bA = target: T39, 4H906-bA; assay: two-hybrid library CCNG1
# 4H918-bN = target: T40, 4H918-bN; assay: two-hybrid library CCNG1
# 4H908-bN = target: T41, 4H908-bN; assay: two-hybrid library CCNG1
# 4H855-bN = target: T42, 4H855-bN; assay: two-hybrid library CCNG1
# 4H883-bN = target: T43, 4H883-bN; assay: two-hybrid library CCNG1
# P12bH1 = target: T44, P12bH1; assay: two-hybrid library CCNG1
# 4H967-bN = target: T45, 4H967-bN; assay: two-hybrid library CCNG1
# 4H968-bN = target: T46, 4H968-bN; assay: two-hybrid library CCNG1
# P6bH1 = target: T47, P6bH1; assay: two-hybrid library CCNG1
# 4H797-bN = target: T48, 4H797-bN; assay: two-hybrid library CCNG1
# 4H953-bN = target: T49, 4H953-bN; assay: two-hybrid library CCNG1
# P1bH1 = target: T50, P1bH1; assay: two-hybrid library CCNG1
# P8bH1 = target: T51, P8bH1; assay: two-hybrid library CCNG1
# P9bH1 = target: T52, P9bH1; assay: two-hybrid library CCNG1
# P4bH1 = target: T53, P4bH1; assay: two-hybrid library CCNG1
# P2bH1 = target: T54, P2bH1; assay: two-hybrid library CCNG1
# P5bH1 = target: T55, P5bH1; assay: two-hybrid library CCNG1
# P7bH1 = target: T56, P7bH1; assay: two-hybrid library CCNG1
# P3bH1 = target: T57, P3bH1; assay: two-hybrid library CCNG1
binder,measurement,setting,value
DKNAALKAENAALEAEIAALEAEIAALEG [O1-AA],interaction score,O3-AA,-1.57
same,interaction score,P9-AA,-0.278
same,interaction score,O2-AA,2.13
same,interaction score,O14-AA,-1.66
same,interaction score,O1-AA,-2.06
same,interaction score,O11-AA,-1.61
same,interaction score,O4-AA,-1.07
same,interaction score,P10-AA,1.05
same,interaction score,O13-AA,0.0154
same,interaction score,O8-AA,-1.41
same,interaction score,O7-AA,-0.639
same,interaction score,O5-AA,-1.72
same,interaction score,O6-AA,-1.79
DENAQLEQKIAELKQEIAELEWENAQLKQ [4H1348-bA],interaction score,4H850-bA,-0.292
same,interaction score,4H1985-bA,-0.366
same,interaction score,4H3277-bA,-0.24
same,interaction score,4H1373-bA,-0.7
same,interaction score,4H1710-bA,0.798
same,interaction score,4H3817-bA,-0.318
same,interaction score,4H3298-bA,-0.624
same,interaction score,4H3497-bA,-0.616
same,interaction score,4H1449-bA,-0.151
same,interaction score,4H3162-bA,-0.332
same,interaction score,4H3613-bA,-1.05
same,interaction score,4H1899-bA,1.63
same,interaction score,4H626-bA,-0.434
same,interaction score,4H591-bA,-1.02
same,interaction score,4H3175-bA,0.0318
same,interaction score,4H338-bH,1.22
same,interaction score,4H1544-bA,-0.0997
same,interaction score,4H3462-bA,0.657
same,interaction score,4H570-bA,-0.301
same,interaction score,4H3628-bA,1.84
same,interaction score,4H3858-bA,-0.895
same,interaction score,4H3638-bA,-0.0281
same,interaction score,4H1348-bA,0.78
same,interaction score,4H3974-bA,0.469
same,interaction score,4H3926-bA,-0.392
same,interaction score,4H906-bA,-0.721
DEIQQLKQKIQELEQENQELKWKIQELEQ [4H797-bN],interaction score,4H918-bN,1.02
same,interaction score,4H908-bN,-0.753
same,interaction score,4H855-bN,0.668
same,interaction score,4H883-bN,-1.53
same,interaction score,P12bH1,-0.66
same,interaction score,4H967-bN,-0.535
same,interaction score,4H968-bN,-1.06
same,interaction score,P6bH1,0.0343
same,interaction score,4H797-bN,0.569
same,interaction score,4H953-bN,-0.455
DKNKQLKKKIEELKRKIWELKKENEQLEQ [P12bH1],interaction score,P1bH1,-0.0192
same,interaction score,P8bH1,-0.578
same,interaction score,P9bH1,-0.294
same,interaction score,P12bH1,-1.4
same,interaction score,P4bH1,-0.999
same,interaction score,P2bH1,-1.01
same,interaction score,P6bH1,-0.251
same,interaction score,P5bH1,-0.826
same,interaction score,P7bH1,-0.861
same,interaction score,P3bH1,-1.43

# — publication PMC10397247
